Test [1] addresses binding partner (antigen) of C5A (XPA23). Briefly: Biacore, K-off, fold vs original. On the technique in general: Surface plasmon resonance follows binding to a sensor surface in real time, without labels.
Test [2] concerns the target binding partner of C5A (XPA23). Briefly: Biacore.

B1: C5A (XPA23) VH S54L (antibody, V domains shown)
VH: EVQLLESGGGLVQPGGSLRLSCAASGFTFSKYFMFWVRQAPGKGLEWVSVISPLGGMTRYADSVKGRFTISRDNSKNTLYLQMNSLRAEDTAVYYCARVGYGGNSDYWGQGTLVTVSS
VL: DIQMTQSPSSVSASVGDRLTIICRASQDINRWLAWYQQTPGNAPKLLIHSATSLQSGVPSRFSGSGSGTDFTLTINSLQPEDFATYYCQQADSFPLTFGGGTKVEIK
As to B1, the fold difference in affinity vs original in test [1] and in test [2] was 0.91 fold each time.

B2: C5A (XPA23) VH G56L (antibody, V domains shown)
VH: EVQLLESGGGLVQPGGSLRLSCAASGFTFSKYFMFWVRQAPGKGLEWVSVISPSGLMTRYADSVKGRFTISRDNSKNTLYLQMNSLRAEDTAVYYCARVGYGGNSDYWGQGTLVTVSS
VL: DIQMTQSPSSVSASVGDRLTIICRASQDINRWLAWYQQTPGNAPKLLIHSATSLQSGVPSRFSGSGSGTDFTLTINSLQPEDFATYYCQQADSFPLTFGGGTKVEIK
Regarding B2, the fold difference in affinity vs original in test [1] and in test [2] was 1.41 fold each time.

B3: C5A (XPA23) VH M57V (antibody, V domains shown)
VH: EVQLLESGGGLVQPGGSLRLSCAASGFTFSKYFMFWVRQAPGKGLEWVSVISPSGGVTRYADSVKGRFTISRDNSKNTLYLQMNSLRAEDTAVYYCARVGYGGNSDYWGQGTLVTVSS
VL: DIQMTQSPSSVSASVGDRLTIICRASQDINRWLAWYQQTPGNAPKLLIHSATSLQSGVPSRFSGSGSGTDFTLTINSLQPEDFATYYCQQADSFPLTFGGGTKVEIK
Regarding B3, the fold difference in affinity vs original in test [1] and in test [2] was 0.03 fold in each case.

B4: C5A (XPA23) VH G55I (antibody, V domains shown)
VH: EVQLLESGGGLVQPGGSLRLSCAASGFTFSKYFMFWVRQAPGKGLEWVSVISPSIGMTRYADSVKGRFTISRDNSKNTLYLQMNSLRAEDTAVYYCARVGYGGNSDYWGQGTLVTVSS
VL: DIQMTQSPSSVSASVGDRLTIICRASQDINRWLAWYQQTPGNAPKLLIHSATSLQSGVPSRFSGSGSGTDFTLTINSLQPEDFATYYCQQADSFPLTFGGGTKVEIK
B4: the fold difference in affinity vs original in test [1] and in test [2] was 0.86 fold in each case.

B5: C5A (XPA23) VH G56P (antibody, V domains shown)
VH: EVQLLESGGGLVQPGGSLRLSCAASGFTFSKYFMFWVRQAPGKGLEWVSVISPSGPMTRYADSVKGRFTISRDNSKNTLYLQMNSLRAEDTAVYYCARVGYGGNSDYWGQGTLVTVSS
VL: DIQMTQSPSSVSASVGDRLTIICRASQDINRWLAWYQQTPGNAPKLLIHSATSLQSGVPSRFSGSGSGTDFTLTINSLQPEDFATYYCQQADSFPLTFGGGTKVEIK
With B5, the fold difference in affinity vs original in test [1] and in test [2] was 0.85 fold each time.

B6: C5A (XPA23) VH M57I (antibody, V domains shown)
VH: EVQLLESGGGLVQPGGSLRLSCAASGFTFSKYFMFWVRQAPGKGLEWVSVISPSGGITRYADSVKGRFTISRDNSKNTLYLQMNSLRAEDTAVYYCARVGYGGNSDYWGQGTLVTVSS
VL: DIQMTQSPSSVSASVGDRLTIICRASQDINRWLAWYQQTPGNAPKLLIHSATSLQSGVPSRFSGSGSGTDFTLTINSLQPEDFATYYCQQADSFPLTFGGGTKVEIK
For B6, the fold difference in affinity vs original in test [1] and in test [2] was 0.03 fold in each case.

B7: C5A (XPA23) VH G56A (antibody, V domains shown)
VH: EVQLLESGGGLVQPGGSLRLSCAASGFTFSKYFMFWVRQAPGKGLEWVSVISPSGAMTRYADSVKGRFTISRDNSKNTLYLQMNSLRAEDTAVYYCARVGYGGNSDYWGQGTLVTVSS
VL: DIQMTQSPSSVSASVGDRLTIICRASQDINRWLAWYQQTPGNAPKLLIHSATSLQSGVPSRFSGSGSGTDFTLTINSLQPEDFATYYCQQADSFPLTFGGGTKVEIK
As for B7, the fold difference in affinity vs original in test [1] and in test [2] was 1.21 fold each time.

B8: C5A (XPA23) VH S54P (antibody, V domains shown)
VH: EVQLLESGGGLVQPGGSLRLSCAASGFTFSKYFMFWVRQAPGKGLEWVSVISPPGGMTRYADSVKGRFTISRDNSKNTLYLQMNSLRAEDTAVYYCARVGYGGNSDYWGQGTLVTVSS
VL: DIQMTQSPSSVSASVGDRLTIICRASQDINRWLAWYQQTPGNAPKLLIHSATSLQSGVPSRFSGSGSGTDFTLTINSLQPEDFATYYCQQADSFPLTFGGGTKVEIK
For B8, the fold difference in affinity vs original in test [1] and in test [2] was 0.06 fold each time.

B9: C5A (XPA23) VH T58A (antibody, V domains shown)
VH: EVQLLESGGGLVQPGGSLRLSCAASGFTFSKYFMFWVRQAPGKGLEWVSVISPSGGMARYADSVKGRFTISRDNSKNTLYLQMNSLRAEDTAVYYCARVGYGGNSDYWGQGTLVTVSS
VL: DIQMTQSPSSVSASVGDRLTIICRASQDINRWLAWYQQTPGNAPKLLIHSATSLQSGVPSRFSGSGSGTDFTLTINSLQPEDFATYYCQQADSFPLTFGGGTKVEIK
Consider B9, for which the fold difference in affinity vs original in test [1] and in test [2] was 0.14 fold throughout.

B10: C5A (XPA23) VH S54F (antibody, V domains shown)
VH: EVQLLESGGGLVQPGGSLRLSCAASGFTFSKYFMFWVRQAPGKGLEWVSVISPFGGMTRYADSVKGRFTISRDNSKNTLYLQMNSLRAEDTAVYYCARVGYGGNSDYWGQGTLVTVSS
VL: DIQMTQSPSSVSASVGDRLTIICRASQDINRWLAWYQQTPGNAPKLLIHSATSLQSGVPSRFSGSGSGTDFTLTINSLQPEDFATYYCQQADSFPLTFGGGTKVEIK
With B10, the fold difference in affinity vs original in test [1] amounted to 0.87 fold. The fold affinity vs original in test [2] was 0.87 fold.

B11: C5A (XPA23) VH G55L (antibody, V domains shown)
VH: EVQLLESGGGLVQPGGSLRLSCAASGFTFSKYFMFWVRQAPGKGLEWVSVISPSLGMTRYADSVKGRFTISRDNSKNTLYLQMNSLRAEDTAVYYCARVGYGGNSDYWGQGTLVTVSS
VL: DIQMTQSPSSVSASVGDRLTIICRASQDINRWLAWYQQTPGNAPKLLIHSATSLQSGVPSRFSGSGSGTDFTLTINSLQPEDFATYYCQQADSFPLTFGGGTKVEIK
For B11, the fold difference in affinity vs original in test [1] and in test [2] was 0.08 fold in each case.

B12: C5A (XPA23) VH S54W (antibody, V domains shown)
VH: EVQLLESGGGLVQPGGSLRLSCAASGFTFSKYFMFWVRQAPGKGLEWVSVISPWGGMTRYADSVKGRFTISRDNSKNTLYLQMNSLRAEDTAVYYCARVGYGGNSDYWGQGTLVTVSS
VL: DIQMTQSPSSVSASVGDRLTIICRASQDINRWLAWYQQTPGNAPKLLIHSATSLQSGVPSRFSGSGSGTDFTLTINSLQPEDFATYYCQQADSFPLTFGGGTKVEIK
With B12, the fold difference in affinity vs original in test [1] was determined as 1.07 fold. Also, in test [2], the fold affinity vs original came to 1.07 fold.

B13: C5A (XPA23) VH G56W (antibody, V domains shown)
VH: EVQLLESGGGLVQPGGSLRLSCAASGFTFSKYFMFWVRQAPGKGLEWVSVISPSGWMTRYADSVKGRFTISRDNSKNTLYLQMNSLRAEDTAVYYCARVGYGGNSDYWGQGTLVTVSS
VL: DIQMTQSPSSVSASVGDRLTIICRASQDINRWLAWYQQTPGNAPKLLIHSATSLQSGVPSRFSGSGSGTDFTLTINSLQPEDFATYYCQQADSFPLTFGGGTKVEIK
For B13, in test [1], the fold difference in affinity vs original was found to be 1.51 fold. For the same molecule, the fold affinity vs original in test [2] was 1.51 fold.

B14: C5A (XPA23) VH T58G (antibody, V domains shown)
VH: EVQLLESGGGLVQPGGSLRLSCAASGFTFSKYFMFWVRQAPGKGLEWVSVISPSGGMGRYADSVKGRFTISRDNSKNTLYLQMNSLRAEDTAVYYCARVGYGGNSDYWGQGTLVTVSS
VL: DIQMTQSPSSVSASVGDRLTIICRASQDINRWLAWYQQTPGNAPKLLIHSATSLQSGVPSRFSGSGSGTDFTLTINSLQPEDFATYYCQQADSFPLTFGGGTKVEIK
Take B14: the fold difference in affinity vs original in test [1] and in test [2] was 0.95 fold in each case.

B15: C5A (XPA23) VH G56F (antibody, V domains shown)
VH: EVQLLESGGGLVQPGGSLRLSCAASGFTFSKYFMFWVRQAPGKGLEWVSVISPSGFMTRYADSVKGRFTISRDNSKNTLYLQMNSLRAEDTAVYYCARVGYGGNSDYWGQGTLVTVSS
VL: DIQMTQSPSSVSASVGDRLTIICRASQDINRWLAWYQQTPGNAPKLLIHSATSLQSGVPSRFSGSGSGTDFTLTINSLQPEDFATYYCQQADSFPLTFGGGTKVEIK
For the molecule B15, the fold difference in affinity vs original in test [1] was 1.41 fold. Moreover, the fold affinity vs original in test [2] came out at 1.41 fold.

B16: C5A (XPA23) VH M57A (antibody, V domains shown)
VH: EVQLLESGGGLVQPGGSLRLSCAASGFTFSKYFMFWVRQAPGKGLEWVSVISPSGGATRYADSVKGRFTISRDNSKNTLYLQMNSLRAEDTAVYYCARVGYGGNSDYWGQGTLVTVSS
VL: DIQMTQSPSSVSASVGDRLTIICRASQDINRWLAWYQQTPGNAPKLLIHSATSLQSGVPSRFSGSGSGTDFTLTINSLQPEDFATYYCQQADSFPLTFGGGTKVEIK
As for B16, the fold difference in affinity vs original in test [1] and in test [2] was 0.03 fold throughout.

B17: C5A (XPA23) VH M57F (antibody, V domains shown)
VH: EVQLLESGGGLVQPGGSLRLSCAASGFTFSKYFMFWVRQAPGKGLEWVSVISPSGGFTRYADSVKGRFTISRDNSKNTLYLQMNSLRAEDTAVYYCARVGYGGNSDYWGQGTLVTVSS
VL: DIQMTQSPSSVSASVGDRLTIICRASQDINRWLAWYQQTPGNAPKLLIHSATSLQSGVPSRFSGSGSGTDFTLTINSLQPEDFATYYCQQADSFPLTFGGGTKVEIK
As for B17, in test [1], the fold difference in affinity vs original was found to be 1.03 fold. In addition, the fold affinity vs original in test [2] turned out to be 1.03 fold.

B18: C5A (XPA23) VH M57L (antibody, V domains shown)
VH: EVQLLESGGGLVQPGGSLRLSCAASGFTFSKYFMFWVRQAPGKGLEWVSVISPSGGLTRYADSVKGRFTISRDNSKNTLYLQMNSLRAEDTAVYYCARVGYGGNSDYWGQGTLVTVSS
VL: DIQMTQSPSSVSASVGDRLTIICRASQDINRWLAWYQQTPGNAPKLLIHSATSLQSGVPSRFSGSGSGTDFTLTINSLQPEDFATYYCQQADSFPLTFGGGTKVEIK
Turning to B18, the fold difference in affinity vs original in test [1] and in test [2] was 0.06 fold each time.

B19: C5A (XPA23) VH G56I (antibody, V domains shown)
VH: EVQLLESGGGLVQPGGSLRLSCAASGFTFSKYFMFWVRQAPGKGLEWVSVISPSGIMTRYADSVKGRFTISRDNSKNTLYLQMNSLRAEDTAVYYCARVGYGGNSDYWGQGTLVTVSS
VL: DIQMTQSPSSVSASVGDRLTIICRASQDINRWLAWYQQTPGNAPKLLIHSATSLQSGVPSRFSGSGSGTDFTLTINSLQPEDFATYYCQQADSFPLTFGGGTKVEIK
Regarding B19, the fold difference in affinity vs original in test [1] and in test [2] was 1.71 fold each time.

The values are drawn from patent US20110118447A1.
